Test results taken from publication PMC3314614, “The Tandem CARDs of NOD2: Intramolecular Interactions and Recognition of RIP2” (PLoS ONE, 2012).

Key:
Pop1 PYD (Homo sapiens) = Pop1 PYD (Homo sapiens) (UniProt Q8WXC3); conditions: cited from earlier work
[1] = biological target: NOD2-CARDb (isolated) (human) (UniProt Q9HC29); experiment: ITC; CARDa in the syringe, CARDb in the cell; 30°C; 50 mM Tris-HCl, 100 mM NaCl, 2 mM DTT, pH 7.5; one-site model
[2] = biological target: NOD2-CARDb (isolated) (human) (UniProt Q9HC29); experiment: AUC; sedimentation velocity; individual samples and a 1:1 mixture of CARDa and CARDb; optical density 0.5 at 280 nm; SedFit
[3] = biological target: NOD2-CARDb (isolated) (human) (UniProt Q9HC29); experiment: ITC; CARDa in the syringe, CARDb in the cell; 18°C; 50 mM Tris-HCl, 100 mM NaCl, 2 mM DTT, pH 7.5; one-site model
[4] = biological target: NOD2-CARDb (isolated) (human) (UniProt Q9HC29); experiment: ITC; CARDa in the syringe, CARDb in the cell; 25°C; 50 mM Tris-HCl, 100 mM NaCl, 2 mM DTT, pH 7.5; one-site model
[5] = biological target: NOD2-CARDb (isolated) (human) (UniProt Q9HC29); experiment: ITC; CARDa in the syringe, CARDb in the cell; 30°C; 50 mM Tris-HCl, 50 mM NaCl, 2 mM DTT, pH 7.5
[6] = biological target: NOD2-CARDb (isolated) (human) (UniProt Q9HC29); experiment: ITC; CARDa in the syringe, CARDb in the cell; 30°C; 50 mM Tris-HCl, 500 mM NaCl, 2 mM DTT, pH 7.5
[7] = biological target: NOD2-CARDb (isolated) (human) (UniProt Q9HC29); experiment: ITC; CARDa in the syringe, CARDb in the cell; 30°C; 50 mM Tris-HCl, 1000 mM NaCl, 2 mM DTT, pH 7.5
[8] = biological target: NOD2-CARDb (isolated) (human) (UniProt Q9HC29); experiment: ITC; CARDa in the syringe, CARDb in the cell; 25°C; 50 mM Tris-HCl, 100 mM NaCl, 2 mM DTT, pH 7.5; one-site model; remark: listed apart in the source
[9] = biological target: NOD2-CARDb (isolated) (human) (UniProt Q9HC29); experiment: ITC; CARDa in the syringe, CARDb in the cell; 30°C; 50 mM Tris-HCl, 250 mM NaCl, 2 mM DTT, pH 7.5
[10] = biological target: Tube DD (Drosophila melanogaster) (UniProt P22812); conditions: cited from earlier work
Chain of Tube DD (Drosophila melanogaster) (P22812 27-152): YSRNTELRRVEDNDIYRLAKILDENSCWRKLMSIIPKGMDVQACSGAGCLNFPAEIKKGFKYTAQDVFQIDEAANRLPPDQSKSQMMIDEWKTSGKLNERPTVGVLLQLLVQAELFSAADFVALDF

[11] = biological target: caspase-1 CARD (Homo sapiens) (UniProt P29466); conditions: cited from earlier work
Chain of caspase-1 CARD (Homo sapiens) (P29466 1-94): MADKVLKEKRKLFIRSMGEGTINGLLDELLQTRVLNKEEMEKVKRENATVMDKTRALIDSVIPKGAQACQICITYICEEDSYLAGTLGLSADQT

procaspase-9 CARD = biological target: T1, procaspase-9 CARD (UniProt P55211 1-92); experiment: ITC; data not shown; at different temperatures; conditions: both partners purified
T1 construct: procaspase-9, CARD
T1 sequence (looked up): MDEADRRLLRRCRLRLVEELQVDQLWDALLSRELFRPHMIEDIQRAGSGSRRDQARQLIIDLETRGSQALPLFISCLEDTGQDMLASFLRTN

Chain of Pop1 PYD (Homo sapiens) (Q8WXC3 whole entry): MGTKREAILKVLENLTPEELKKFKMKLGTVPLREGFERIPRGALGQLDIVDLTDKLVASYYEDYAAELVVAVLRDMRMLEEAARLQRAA

In the case of ASC PYD (from UniProt Q9ULZ3), the Kd (Pop1 PYD (Homo sapiens)) is given as 4000 nM.

“NOD2-CARDa (isolated, wild type) (from UniProt Q9HC29 28-119) (domain or fragment)” showed a Kd [1] of 1410 nM, a dH [1] of -7.4 kcal/mol and a stoichiometry N [1] of 0.91. The stoichiometry N [2] was 1, the Kd [3] was 1080 nM and the dH [3] was -2 kcal/mol. For the same molecule, the stoichiometry N [3] was 0.84, the Kd [4] was 880 nM and the dH [4] was -4.7 kcal/mol. For the same molecule, the stoichiometry N [4] was 1.03, the Kd [5] was 1090 nM and the dH [5] was -9 kcal/mol. For the same molecule, the stoichiometry N [5] was 0.61, the Kd [6] was 6250 nM and the dH [6] was -4.8 kcal/mol. For the same molecule, the stoichiometry N [6] was 0.85, the Kd [7] was 7140 nM and the dH [7] was -2.6 kcal/mol. The stoichiometry N [7] was 0.78, the Kd [8] was 1100 nM and the Kd [9] was 2990 nM. The dH [9] was -5.5 kcal/mol and the stoichiometry N [9] was 0.99.

For “NOD2-CARDa E69K (isolated) (from UniProt Q9HC29 28-119) (domain or fragment)”, the Kd [4] was 720 nM, the dH [4] was -3.8 kcal/mol and the stoichiometry N [4] was 0.94.

“NOD2-CARDa E72K (isolated) (from UniProt Q9HC29 28-119) (domain or fragment)” showed a Kd [4] of 330 nM, a dH [4] of -5.2 kcal/mol and a stoichiometry N [4] of 0.81.

Molecule “NOD2-CARDa R86A (isolated) (from UniProt Q9HC29 28-119) (domain or fragment)” has a Kd [4] of 810 nM, a dH [4] of -4.8 kcal/mol and a stoichiometry N [4] of 0.91.

For Pelle DD (from UniProt Q05652), the Kd [10] is listed as 500 nM.

In the case of RIP2 CARD (from UniProt O43353), the Kd [11] is listed as 1400 nM.

B1: Apaf-1 CARD (domain or fragment, UniProt O14727 1-90, looked up)
chain: MDAKARNCLLQHREALEKDIKTSYIMDHMISDGFLTISEEEKVRNEPTQQQRAAMLIKMILKKDNDSYVSFYNALLHEGYKDLAALLHDG
notes: Apaf-1, CARD
With B1 the Kd (procaspase-9 CARD) was 1000 to 4000 nM.
